# Results published in FireProtDB (doi:10.1074/jbc.273.1.167).
# Values joined by “and” are separate entries in the source; they are usually repeats but may differ in a detail not shown here. Equal entries are not always repeated.
# Settings: Bos taurus, pH 7, Thermal, DSC, phosphate 10 mM, transition: 3, reversible: no, whole UniProt chain shown
protein,measurement,setting,value
"Tubulin--tyrosine ligase wild type, P38584 (protein) MYTFVVRDENSSVYAEVSRLLLATGHWKRLRRDNPRFNLMLGERNRLPFGRLGHEPGLMQLVNYYRGADKLCRKASLVKLIKTSPELAESCTWFPESYVIYPTNLKTPVAPAQDGIHPPLHSSRTDEREFFLASYNRKKEEGEGNVWIAKSSAGAKGEGILISSDATELLDFIDNQGQVHVIQKYLERPLLLEPGHRKFDIRSWVLVDHQFNIYLYREGVLRTASEPYHMDNFQDKTCHLTNHCIQKEYSKNYGKYEEGNEMFFEAFNRYLTSALNITLESSILLQIKHIIRSCLMSVEPAISTKHLPYQSFQLFGFDFMVDEELKVWLIEVNGAPACAQKLYAELCQGIVDIAIASVFPPPDAEQQPPQPATFIKL",Tm,Mg++ 30 nM,51.1 °C
same,unfolding enthalpy (calorimetric),Mg++ 30 nM,160 kcal/mol
same,unfolding enthalpy (calorimetric),Mg++ 35 nM,38 kcal/mol and 84 kcal/mol
same,unfolding enthalpy (calorimetric),Mg++ 40 nM,31 kcal/mol and 84 kcal/mol
same,Tm,Mg++ 182 nM,49.9 °C
same,unfolding enthalpy (calorimetric),Mg++ 182 nM,158 kcal/mol
same,Tm,Mg++ 2.3 micro M,54.6 °C
same,unfolding enthalpy (calorimetric),Mg++ 2.3 micro M,173 kcal/mol
same,Tm,Mg++ 4.5 micro M,54.8 °C
same,unfolding enthalpy (calorimetric),Mg++ 4.5 micro M,173 kcal/mol
same,Tm,Mg++ 160 micro M,55.8 °C
same,unfolding enthalpy (calorimetric),Mg++ 160 micro M,150 kcal/mol
same,Tm,Mg++ 280 micro M,55.6 °C and 54.2 °C
same,unfolding enthalpy (calorimetric),Mg++ 280 micro M,186 kcal/mol and 200 kcal/mol
